Experimental findings from publication PMC10144703, “Molecular Mechanism of Sirtuin 1 Inhibition by Human Immunodeficiency Virus 1 Tat Protein” (Life, 2023) are described below.

As usually defined, the IC50 is the concentration that gives 50% inhibition.

In this assay the target is T1, human full-length Sirt1 (fl-Sirt1) (Homo sapiens, UniProt Q96EB6).
T1 construct: human full-length Sirt1 (fl-Sirt1) in pET-15b; made in house; host or cells: E. coli CodonPlus(DE3)
T1 sequence (Q96EB6 1-747): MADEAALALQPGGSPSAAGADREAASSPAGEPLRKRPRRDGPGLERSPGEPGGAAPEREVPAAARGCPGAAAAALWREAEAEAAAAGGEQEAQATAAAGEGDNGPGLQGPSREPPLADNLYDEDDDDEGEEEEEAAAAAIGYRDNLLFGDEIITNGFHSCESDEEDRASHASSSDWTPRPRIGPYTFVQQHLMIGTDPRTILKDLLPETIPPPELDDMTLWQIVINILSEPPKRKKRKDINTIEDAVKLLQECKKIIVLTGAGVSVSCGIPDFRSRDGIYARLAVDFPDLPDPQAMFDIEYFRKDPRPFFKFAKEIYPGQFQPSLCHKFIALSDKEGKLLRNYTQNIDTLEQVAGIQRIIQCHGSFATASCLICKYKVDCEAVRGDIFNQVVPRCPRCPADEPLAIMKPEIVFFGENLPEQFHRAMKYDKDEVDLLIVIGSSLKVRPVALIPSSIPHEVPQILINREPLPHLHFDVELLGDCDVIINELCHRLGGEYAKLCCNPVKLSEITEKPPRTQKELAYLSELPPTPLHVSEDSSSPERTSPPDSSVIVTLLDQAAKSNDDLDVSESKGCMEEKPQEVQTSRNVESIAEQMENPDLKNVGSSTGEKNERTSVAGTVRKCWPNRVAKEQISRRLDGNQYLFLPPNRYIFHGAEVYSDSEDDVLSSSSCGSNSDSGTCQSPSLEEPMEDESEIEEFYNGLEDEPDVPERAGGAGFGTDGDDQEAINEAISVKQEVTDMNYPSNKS
As to the kind of experiment: FdL deacetylation assay, fl-Sirt1. It is filed as biochemical. To be noted: FdL assay, 100 µM FdL-1, 500 µM NAD^+, pH 7.8, 37 °C; n = 2; read-out: IC50, fl-Sirt1, truncated Tat-Cys^− constructs. From the text:
A human mini-Sirt1 construct (aa 183-505-(GGGS)2-641-665), as described in [27], was generated in a modified pET-19b with a TEV cleavage site. This construct and human full-length Sirt1 (fl-Sirt1) in pET-15b, Sirt1-(183-664) and Sirt1-(214-664) in pET-15b, mini-Sirt1-∆SBD (aa 214-505-(GGGS)2-641-665) and mini-Sirt1-∆ESA (aa 183–505) in a modified pET-19b with TEV cleavage site, Sirt2-(43-356) in a modified pET-19b with a His6-Sumo tag, Sirt3-(93-399) in a modified pET-32a with Trx-His6 tag and TEV cleavage site, hSirt3-(118-399) in pVFT3S (Sungkyunkwan University, Seoul, Republic of Korea) with His6-Trx tag and TEV cleavage site, Sirt5-(34-302) in pET-151/D-TOPO, and Sirt6-(1-355) in pQE80L.1 were purified as described. Shortly, proteins were expressed at 20 °C (mini-Sirt1 constructs at 16 °C) in E. coli CodonPlus(DE3), cell lysates were cleared by centrifugation, and proteins were purified via affinity chromatography using a nickel NTA column. After digestion with thrombin or TEV protease, proteins were re-run over the nickel NTA column, pooled, and concentrated. The samples were, then, subjected either directly to size exclusion chromatography in 50 mM Tris/HCl, pH 8.0, 150 mM NaCl, 1 mM TCEP, or to an ion exchange chromatography followed by size exclusion chromatography. […]

B1: Tat-Cys^− residues 1–63: C-terminally shortened Tat-Cys^− construct, residues 1–63 (protein)
chain: MDPVDPNIEPWNHPGSQPKTASNRAHAKKSAYHSQVAFITKGLGISYGRKKRRQRRRPSQGGQ
As to B1, the IC50 is ~10 µM.
